Experimental data taken from article PMC5958125, “IgG-single-chain TRAIL fusion proteins for tumour therapy” (Scientific Reports, 2018).
Values belong to the molecule of their own block, whether it stands above or below them.

Assays:
Assay in all cases: ELISA; TRAILR1-Fc or TRAILR2-Fc coated (200 ng/well in 0.1 M sodium carbonate buffer, pH 9.5), samples in 3% skim milk/PBS titrated 1:3 from 150 nM, 2 h room temperature, concentrations normalised to one scTRAIL unit, detected with anti-FLAG M2-HRP
[1] = target: TRAILR2-Fc (UniProt O14763)
[2] = target: T1, TRAILR2-Fc (UniProt O14763 56-210); conditions: both partners purified
T1 construct: TRAIL receptor 2 (TRAILR2); Probably the extracellular domain fused to an Fc

[3] = target: T2, TRAILR1-Fc (UniProt O00220 24-239); conditions: both partners purified
T2 construct: TRAIL receptor 1 (TRAILR1); Probably the extracellular domain fused to an Fc
T2 sequence (O00220 24-239): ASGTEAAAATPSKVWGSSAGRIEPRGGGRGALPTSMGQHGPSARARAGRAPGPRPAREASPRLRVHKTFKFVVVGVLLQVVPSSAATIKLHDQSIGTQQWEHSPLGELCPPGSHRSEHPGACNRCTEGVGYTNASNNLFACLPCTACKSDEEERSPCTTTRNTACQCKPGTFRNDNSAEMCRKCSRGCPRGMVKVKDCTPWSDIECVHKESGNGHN

- EC50 [1]: 0.8 nM
Molecule: HC-scTRAIL (fusion of scTRAIL to hu225 IgG heavy chains)

- EC50 [1]: 0.9 nM
Molecule: LC-scTRAIL (fusion of scTRAIL to hu225 IgG light chains)

- EC50 [1]: 3.4 nM
Molecule: LC/HC-scTRAIL (fusion of scTRAIL to both hu225 IgG chains)

- EC50 [2]: 1.1 nM
- EC50 [3]: 7.3 nM
B1: Fc-scTRAIL-FAVSGAA (Fc fusion)
chain: AAHITGTRGRSNTLSSPNSKNEKALGRKINSWESSRSGHSFLSNLHLRNGELVIHEKGFYYIYSQTYFRFQEEIKENTKNDKQMVQYIYKYTSYPDPILLMKSARNSCWSKDAEYGLYSIYQGGIFELKENDRIFVSVTNEHLIDMDHEASFFGAFAVSGAAHITGTRGRSNTLSSPNSKNEKALGRKINSWESSRSGHSFLSNLHLRNGELVIHEKGFYYIYSQTYFRFQEEIKENTKNDKQMVQYIYKYTSYPDPILLMKSARNSCWSKDAEYGLYSIYQGGIFELKENDRIFVSVTNEHLIDMDHEASFFGAFAVSGAAHITGTRGRSNTLSSPNSKNEKALGRKINSWESSRSGHSFLSNLHLRNGELVIHEKGFYYIYSQTYFRFQEEIKENTKNDKQMVQYIYKYTSYPDPILLMKSARNSCWSKDAEYGLYSIYQGGIFELKENDRIFVSVTNEHLIDMDHEASFFGAFAVS
